One molecule from PMC2965215 can be followed below.

This data set has as its target T1, ORF904 primase domain Y352A (Sulfolobus islandicus plasmid pRN1, UniProt Q54324 40-370, Y352A).
T1 sequence: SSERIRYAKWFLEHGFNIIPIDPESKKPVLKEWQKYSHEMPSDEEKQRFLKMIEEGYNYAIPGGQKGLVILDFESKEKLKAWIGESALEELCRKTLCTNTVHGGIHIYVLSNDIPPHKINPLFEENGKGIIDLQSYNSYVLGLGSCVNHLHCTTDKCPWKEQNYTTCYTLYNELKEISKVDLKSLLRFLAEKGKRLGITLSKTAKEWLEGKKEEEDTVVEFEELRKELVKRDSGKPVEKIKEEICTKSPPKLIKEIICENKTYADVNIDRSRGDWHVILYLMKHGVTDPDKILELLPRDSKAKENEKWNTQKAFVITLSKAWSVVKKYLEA
As to the kind of experiment: fluorescence anisotropy. (Fluorescence polarisation rises when a labelled molecule tumbles more slowly, as on binding a larger partner.)

B1: templatefluo (ssDNA)
DNA: TCTTCTGTGCACTCTTC
For orientation: Kd means the concentration at which binding is half-saturated. High values mean a looser complex, low ones a tighter complex. The molecule B1 had a Kd of 1030 ± 80 nM.
